Data set [1] deals with GST‐tagged W105,107K variant of recombinant P. falciparum enolase (not stated | Plasmodium falciparum).
The target is the same in data set [2]. Briefly: SEC; proteins with the GST tag; Superdex‐200 Increase 10/300 GL, 1 mg protein in 0.5 mL buffer; 50 mM Tris‐HCl, 150 mM NaCl, 5 mM MgCl2 pH 7.5. On the technique in general: Size exclusion chromatography separates by hydrodynamic size, large species first.
The target of data set [3] is GST‐tagged W105,107A variant of recombinant P. falciparum enolase (not stated | Plasmodium falciparum).
The target is the same in data set [4]. Briefly: SEC; proteins with the GST tag; Superdex‐200 Increase 10/300 GL, 1 mg protein in 0.5 mL buffer; 50 mM Tris‐HCl, 150 mM NaCl, 5 mM MgCl2 pH 7.5.
Data set [5] concerns the molecule itself. Kind of data set: cell-based or functional assay.
Data set [6] concerns the molecule itself. Kind of data set: SEC; proteins without the GST tag; Superdex‐200 HiLoad 16/600, 1–2 mg of protein in 2 mL buffer; 50 mM Tris‐HCl, 150 mM NaCl, 5 mM MgCl2 pH 7.5; dimer to monomers.

One may read the stoichiometry N as a count of units in the complex or per binding partner. “GST‐tagged W105,107K variant of recombinant P. falciparum enolase (enzyme)”: the enolase activity, V max (% of GST‐rPfeno) (% of GST‐rPfeno) in data set [1] is 33. For the same molecule, the stoichiometry N in data set [2] turned out to be 2. As for “GST‐tagged W105,107A variant of recombinant P. falciparum enolase (enzyme)”, the enolase activity, V max (% of GST‐rPfeno) (% of GST‐rPfeno) in data set [3] worked out at 22. The stoichiometry N in data set [4] was 2.

B1: W105,107A variant of recombinant P. falciparum enolase, GST tag removed (enzyme, Plasmodium falciparum, UniProt Q27727 1-446, looked up)
chain: MAHVITRINAREILDSRGNPTVEVDLETNLGIFRAAVPSGASTGIYEALELRDNDKSRYLGKGVQKAIKNINEIIAPKLIGMNCTEQKKIDNLMVEELDGSKNEAGASKSKLGANAILAISMAVCRAGAAPNKVSLYKYLAQLAGKKSDQMVLPVPCLNVINGGSHAGNKLSFQEFMIVPVGAPSFKEALRYGAEVYHTLKSEIKKKYGIDATNVGDEGGFAPNILNANEALDLLVTAIKSAGYEGKVKIAMDVAASEFYNSENKTYDLDFKTPNNDKSLVKTGAQLVDLYIDLVKKYPIVSIEDPFDQDDWENYAKLTAAIGKDVQIVGDDLLVTNPTRITKALEKNACNALLLKVNQIGSITEAIEACLLSQKNNWGVMVSHRSGETEDVFIADLVVALRTGQIKTGAPCRSERNAKYNQLLRIEESLGNNAVFAGEKFRLQLN
For the molecule B1, the “enolase activity, V max (% WT rPfeno)” value in data set [5] is 4 % of WT‐rPfeno.

B2: recombinant P. falciparum enolase, wild type (WT‐rPfeno), GST tag removed (enzyme, Plasmodium falciparum, UniProt Q27727 1-446, looked up)
chain: MAHVITRINAREILDSRGNPTVEVDLETNLGIFRAAVPSGASTGIYEALELRDNDKSRYLGKGVQKAIKNINEIIAPKLIGMNCTEQKKIDNLMVEELDGSKNEWGWSKSKLGANAILAISMAVCRAGAAPNKVSLYKYLAQLAGKKSDQMVLPVPCLNVINGGSHAGNKLSFQEFMIVPVGAPSFKEALRYGAEVYHTLKSEIKKKYGIDATNVGDEGGFAPNILNANEALDLLVTAIKSAGYEGKVKIAMDVAASEFYNSENKTYDLDFKTPNNDKSLVKTGAQLVDLYIDLVKKYPIVSIEDPFDQDDWENYAKLTAAIGKDVQIVGDDLLVTNPTRITKALEKNACNALLLKVNQIGSITEAIEACLLSQKNNWGVMVSHRSGETEDVFIADLVVALRTGQIKTGAPCRSERNAKYNQLLRIEESLGNNAVFAGEKFRLQLN
notes: Plasmodium falciparum enolase (Pfeno), UniProt Q27727, 446 amino acids; also called Plasmodium falciparum enolase; source: E. coli BL21 (DE3), pGEX4T1, purified on glutathione Sepharose, GST tag cut off with thrombin
Turning to B2, the “stoichiometry N” value in data set [6] came to 2.

Source of the values: paper PMC5494301, “Functions of tryptophan residues in EWGWS insert of Plasmodium falciparum enolase” (FEBS Open Bio, 2017).
